Results: patent publication US6942981
Ends that are not written are not given here. * marks the point of attachment. Biotin = O=C1N[C@H]2[C@H](CS[C@H]2CCCCC(=O)*)N1

T1: GST-NeDLG PDZ domains 1-2 fusion protein (Mus musculus (Mouse), UniProt P70175 147-332)
T1 construct: also called NeDLG1; not shown: glutathione S-transferase (GST) encoded by pGEX-3X
T1 chain: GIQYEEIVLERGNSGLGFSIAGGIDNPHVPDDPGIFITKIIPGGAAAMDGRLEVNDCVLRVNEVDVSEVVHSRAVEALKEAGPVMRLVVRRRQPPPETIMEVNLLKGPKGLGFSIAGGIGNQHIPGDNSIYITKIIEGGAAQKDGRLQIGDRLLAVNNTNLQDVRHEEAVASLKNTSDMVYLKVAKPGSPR

T2: GST-LIM (Human LIM protein) PDZ domain fusion protein (human, UniProt Q96HC4 2-85)
T2 construct: not shown: glutathione S-transferase (GST) encoded by pGEX-3X
T2 sequence: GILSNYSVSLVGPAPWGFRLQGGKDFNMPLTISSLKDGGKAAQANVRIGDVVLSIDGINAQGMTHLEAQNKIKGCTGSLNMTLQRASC

T3: GST-SYN1a (alpha1-syntrophin) PDZ domain fusion protein (Homo sapiens (Human), UniProt Q13424 84-179)
T3 construct: also called SYN 1 α; not shown: glutathione S-transferase (GST) encoded by pGEX-3X
T3 sequence: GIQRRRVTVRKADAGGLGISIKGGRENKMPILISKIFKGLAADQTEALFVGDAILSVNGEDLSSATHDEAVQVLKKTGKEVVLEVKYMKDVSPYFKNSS

T4: GST-LIMK2 PDZ domain fusion protein (human, UniProt P53671 147-237)
T4 construct: also called human LIM domain kinase 2; not shown: glutathione S-transferase (GST) encoded by pGEX-3X
T4 sequence: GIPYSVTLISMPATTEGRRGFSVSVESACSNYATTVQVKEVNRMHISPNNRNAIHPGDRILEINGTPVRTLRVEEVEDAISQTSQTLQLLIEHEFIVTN

T5: GST-prIL16 PDZ domains 1-2 fusion protein (Homo sapiens (Human), UniProt Q14005 1110-1325)
T5 construct: also called putative interleukin 16 precursor; not shown: glutathione S-transferase (GST) encoded by pGEX-3X
T5 sequence: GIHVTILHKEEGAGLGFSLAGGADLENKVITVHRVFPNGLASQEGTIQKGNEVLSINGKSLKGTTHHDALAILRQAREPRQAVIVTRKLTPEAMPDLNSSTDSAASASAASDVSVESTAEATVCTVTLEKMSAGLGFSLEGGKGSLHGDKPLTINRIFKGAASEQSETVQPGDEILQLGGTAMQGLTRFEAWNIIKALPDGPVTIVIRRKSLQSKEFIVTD

T6: GST-KIAA0559 PDZ domain fusion protein (Homo sapiens (Human), UniProt Q9Y6V0 4489-4594)
T6 construct: also called K559; not shown: glutathione S-transferase (GST) encoded by pGEX-3X
T6 sequence: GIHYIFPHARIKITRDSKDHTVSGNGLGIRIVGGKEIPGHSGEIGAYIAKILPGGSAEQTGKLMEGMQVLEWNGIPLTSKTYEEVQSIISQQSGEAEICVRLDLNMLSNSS

T7: GST-AF6 PDZ domain fusion protein (Homo sapiens (Human), UniProt P55196 1001-1093)
T7 construct: also called af-6 protein; not shown: glutathione S-transferase (GST) encoded by pGEX-3X
T7 sequence: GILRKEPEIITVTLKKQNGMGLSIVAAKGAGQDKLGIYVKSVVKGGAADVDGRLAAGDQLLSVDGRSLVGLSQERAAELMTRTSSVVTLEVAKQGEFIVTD


Columns and labels:
[1] = target: T8, GST-PSD95 PDZ domains 1-3 fusion protein (human, UniProt P31016 58-395 (rat entry)); experiment: A assay
T8 construct: not shown: glutathione S-transferase (GST) encoded by pGEX-3X

[2] = target: T1, GST-NeDLG PDZ domains 1-2 fusion protein; experiment: G assay
[3] = target: T2, GST-LIM (Human LIM protein) PDZ domain …; experiment: A/G assays
[4] = target: T3, GST-SYN1a (alpha1-syntrophin) PDZ …; experiment: A/G assays
[5] = target: T9, GST-NOS1 PDZ domain fusion protein (human, UniProt P29475 11-101); experiment: A/G assays
T9 construct: also called human neuronal nitric oxide synthase; not shown: glutathione S-transferase (GST) encoded by pGEX-3X

[6] = target: T4, GST-LIMK2 PDZ domain fusion protein; experiment: A/G assays
[7] = target: T5, GST-prIL16 PDZ domains 1-2 fusion …; experiment: A/G assays
[8] = target: T6, GST-KIAA0559 PDZ domain fusion protein; experiment: A/G assays
[9] = target: T7, GST-AF6 PDZ domain fusion protein; experiment: A/G assays
[10] = target: T1, GST-NeDLG PDZ domains 1-2 fusion protein; experiment: A/G assays

T9 sequence (P29475 other isoform, or with tags, fused parts or gaps): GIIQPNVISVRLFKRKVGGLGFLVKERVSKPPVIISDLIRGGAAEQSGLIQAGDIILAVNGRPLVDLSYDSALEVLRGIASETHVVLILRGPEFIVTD
T8 sequence (P31016 other isoform, or with tags, fused parts or gaps): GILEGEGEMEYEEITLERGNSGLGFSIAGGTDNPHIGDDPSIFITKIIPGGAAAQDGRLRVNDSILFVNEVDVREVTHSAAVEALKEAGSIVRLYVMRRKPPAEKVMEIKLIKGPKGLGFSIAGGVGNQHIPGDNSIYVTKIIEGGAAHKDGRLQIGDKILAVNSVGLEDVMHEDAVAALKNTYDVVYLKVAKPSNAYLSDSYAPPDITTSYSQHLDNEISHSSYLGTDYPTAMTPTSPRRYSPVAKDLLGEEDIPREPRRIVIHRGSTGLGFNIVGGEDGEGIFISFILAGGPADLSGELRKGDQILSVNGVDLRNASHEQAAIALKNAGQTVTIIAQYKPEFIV

Binder | binding result [1] | binding result [2] | binding result [3] | binding result [4] | binding result [5] | binding result [6] | binding result [7] | binding result [8] | binding result [9] | binding result [10]
Biotin-QATSRNGHSARQHVVADTEL [CD34 C-terminal peptide AA7L] | binds | binds | no binding | no binding | no binding | no binding | no binding | no binding | no binding | 
Biotin-TIYENLAPVTTFGKTIA [CD148 peptide AA55L (ending KTIA)] |  |  | no binding | no binding | no binding | no binding | no binding | no binding | no binding | no binding
